Assay results as given in article PMC1919377, “Cation induced differential effect on structural and functional properties of Mycobacterium tuberculosis α-Isopropylmalate synthase” (BMC Structural Biology, 2007).

Biological target: the molecule itself
Assay: cross-linking

B1: isolated TIM barrel domain of Mycobacterium tuberculosis α-isopropylmalate synthase (Arg47 to Phe457) (domain or fragment)
chain: RPFAEEVEPIRLRNRTWPDRVIDRAPLWCAVDLRDGNQALIDPMSPARKRRMFDLLVRMGYKEIEVGFPSASQTDFDFVREIIEQGAIPDDVTIQVLTQCRPELIERTFQACSGAPRAIVHFYNSTSILQRRVVFRANRAEVQAIATDGARKCVEQAAKYPGTQWRFEYSPESYTGTELEYAKQVCDAVGEVIAPTPERPIIFNLPATVEMTTPNVYADSIEWMSRNLANRESVILSLHPHNDRGTAVAAAELGFAAGADRIEGCLFGNGERTGNVCLVTLGLNLFSRGVDPQIDFSNIDEIRRTVEYCNQLPVHERHPYGGDLVYTAFSGSHQDAINKGLDAMKLDADAADCDVDDMLWQVPYLPIDPRDVGRTYEAVIRVNSQSGKGGVAYIMKTDHGLSLPRRLQIEF
notes: also called catalytic TIM barrel domain; Band I; not shown: histidine tag, N-terminal, cleaved
In the case of B1, the “stoichiometry N” value is reported as 2.
